Results on three molecules are retold here after paper PMC4520625 (Biochemistry, 2015).

Experiment [1] concerns the target full-length human galectin-3 (human, UniProt P17931 1-250). The experiment is described as follows: ITC. For orientation: In ITC the heat of successive injections is recorded.
Another experiment deals with His-tagged galectin-3 (human, UniProt P17931 1-250). Briefly: AlphaScreen or HTRF.

Ends that are not written are not given here. * marks the point of attachment. Galβ1,3GalNAcα = CC(=O)N[C@@H]1[C@@H](O[C@@H]2O[C@H](CO)[C@H](O)[C@H](O)[C@H]2O)[C@@H](O)[C@@H](CO)O[C@@H]1*

full-length human galectin-3, sequence (P17931 whole entry): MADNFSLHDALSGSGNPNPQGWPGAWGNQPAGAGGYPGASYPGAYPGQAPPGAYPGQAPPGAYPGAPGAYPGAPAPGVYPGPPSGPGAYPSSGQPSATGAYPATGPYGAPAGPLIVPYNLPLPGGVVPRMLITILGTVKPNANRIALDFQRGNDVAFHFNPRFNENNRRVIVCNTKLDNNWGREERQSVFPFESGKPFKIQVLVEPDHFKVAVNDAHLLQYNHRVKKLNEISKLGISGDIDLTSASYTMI
His-tagged galectin-3, sequence (P17931 whole entry): as above

B1: MUC1(1-15)-Thr4 truncated glycopeptide carrying the TF antigen (peptide)
peptide: HGVT(Galβ1,3GalNAcα)SAPDTRPAPGS
A word on the stoichiometry N: it is a count of units in the complex or per binding partner. Regarding B1, in experiment [1], the Ka was 7600 M⁻¹, the dH is -1.79 kcal/mol and the “stoichiometry N” value worked out at 0.87.

B2: MUC1(1-8)-Thr4 truncated glycopeptide carrying the TF antigen (peptide)
peptide: HGVT(Galβ1,3GalNAcα)SAPD
B2: in experiment [1], the Ka was found to be 2900 M⁻¹, the dH was -1.32 kcal/mol and the “stoichiometry N” value was 0.97.

B3: asialofetuin (ASF), unlabeled (natural protein, UniProt P12763 19-359, looked up)
chain: IPLDPVAGYKEPACDDPDTEQAALAAVDYINKHLPRGYKHTLNQIDSVKVWPRRPTGEVYDIEIDTLETTCHVLDPTPLANCSVRQQTQHAVEGDCDIHVLKQDGQFSVLFTKCDSSPDSAEDVRKLCPDCPLLAPLNDSRVVHAVEVALATFNAESNGSYLQLVEISRAQFVPLPVSVSVEFAVAATDCIAKEVVDPTKCNLLAEKQYGFCKGSVIQKALGGEDVRVTCTLFQTQPVIPQPQPDGAEAEAPSAVPDAAGPTPSAAGPPVASVVVGPSVVAVPLPLHRAHYDLRHTFSGVASVESSSGEAFHVGKTPIVGQPSIPGGPVRLCPGRIRYFKI
modifications: three complex-type N-glycans (asialo)
As usually defined, the IC50 is the midpoint of a concentration-inhibition curve. Turning to B3, half-maximal inhibition with His-tagged galectin-3 (IC50) was put at 2.3 nM.
